{
  "source": "paper PMC2175517",
  "target": "poly(ADP-ribosyl)ated GST-Sp1-8xHis (UniProt P08047)",
  "sequence (P08047 whole entry)": "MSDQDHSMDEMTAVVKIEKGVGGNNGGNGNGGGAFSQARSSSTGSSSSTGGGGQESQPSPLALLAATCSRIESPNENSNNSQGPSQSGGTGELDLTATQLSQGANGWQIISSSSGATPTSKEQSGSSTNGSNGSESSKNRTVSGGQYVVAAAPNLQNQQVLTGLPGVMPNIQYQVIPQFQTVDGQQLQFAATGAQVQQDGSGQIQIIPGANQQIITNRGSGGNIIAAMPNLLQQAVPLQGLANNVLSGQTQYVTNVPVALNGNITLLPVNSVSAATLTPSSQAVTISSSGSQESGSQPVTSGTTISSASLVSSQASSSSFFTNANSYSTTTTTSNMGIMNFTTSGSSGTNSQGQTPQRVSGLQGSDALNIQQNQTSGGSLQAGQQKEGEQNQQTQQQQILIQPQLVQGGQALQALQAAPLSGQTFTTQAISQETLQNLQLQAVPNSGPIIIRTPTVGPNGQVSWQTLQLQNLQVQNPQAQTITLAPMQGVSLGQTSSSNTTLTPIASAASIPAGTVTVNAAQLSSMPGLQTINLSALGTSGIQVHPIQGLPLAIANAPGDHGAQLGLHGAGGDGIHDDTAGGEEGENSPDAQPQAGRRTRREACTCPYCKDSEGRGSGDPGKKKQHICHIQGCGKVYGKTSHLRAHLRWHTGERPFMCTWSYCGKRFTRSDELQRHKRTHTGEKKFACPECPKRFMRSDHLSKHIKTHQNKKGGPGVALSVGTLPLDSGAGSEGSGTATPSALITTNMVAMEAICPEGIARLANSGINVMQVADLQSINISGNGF",
  "experiment": "EMSA",
  "conditions": "after PARP-1 + 200 uM NAD+ + nicked DNA; approximately 71% reduction; EMSA in buffer D (5 mM HEPES, 10% glycerol, 0.05 mM EDTA, 0.125 mM PMSF), 25 ng poly(dI-dC) (omitted for recombinant Sp1), room temperature 5 min; pH not …",
  "data": [
    {"sequence": "GATCATATCTGCGGGGCGGGGCAGACACAG (double strand) [Sp1 oligonucleotide]", "values": [
      {"measurement": "binding signal (% of unmodified Sp1)", "result": 29}
    ]}
  ]
}
